Measurements from patent US20220315909.

B1: Recombinant Human Matriptase/ST14 Catalytic Domain (protein)
chain: not shown
SEQ ID NO 17994
  cleavage ratio (PAR) on peptide array, human MT-SP1 500 nM: showed higher cleavage ratios than the sequence shown as SEQ ID NO: 3 for both the cleavages by human uPA and human MT-SP1
SEQ ID NO 17995
  cleavage ratio (PAR) on peptide array, human MT-SP1 500 nM: showed higher cleavage ratios than the sequence shown as SEQ ID NO: 3 for both the cleavages by human uPA and human MT-SP1
SEQ ID NO 17996
  cleavage ratio (PAR) on peptide array, human MT-SP1 500 nM: showed higher cleavage ratios than the sequence shown as SEQ ID NO: 3 for both the cleavages by human uPA and human MT-SP1
SEQ ID NO 17997
  cleavage ratio (PAR) on peptide array, human MT-SP1 500 nM: showed higher cleavage ratios than the sequence shown as SEQ ID NO: 3 for both the cleavages by human uPA and human MT-SP1
SEQ ID NO 17998
  cleavage ratio (PAR) on peptide array, human MT-SP1 500 nM: showed higher cleavage ratios than the sequence shown as SEQ ID NO: 3 for both the cleavages by human uPA and human MT-SP1
SEQ ID NO 17999
  cleavage ratio (PAR) on peptide array, human MT-SP1 500 nM: showed higher cleavage ratios than the sequence shown as SEQ ID NO: 3 for both the cleavages by human uPA and human MT-SP1
SEQ ID NO 18000
  cleavage ratio (PAR) on peptide array, human MT-SP1 500 nM: showed higher cleavage ratios than the sequence shown as SEQ ID NO: 3 for both the cleavages by human uPA and human MT-SP1
SEQ ID NO 18001
  cleavage ratio (PAR) on peptide array, human MT-SP1 500 nM: showed higher cleavage ratios than the sequence shown as SEQ ID NO: 3 for both the cleavages by human uPA and human MT-SP1
SEQ ID NO 18002
  cleavage ratio (PAR) on peptide array, human MT-SP1 500 nM: showed higher cleavage ratios than the sequence shown as SEQ ID NO: 3 for both the cleavages by human uPA and human MT-SP1
SEQ ID NO 18003
  cleavage ratio (PAR) on peptide array, human MT-SP1 500 nM: showed higher cleavage ratios than the sequence shown as SEQ ID NO: 3 for both the cleavages by human uPA and human MT-SP1
SEQ ID NOs: 17202-17993
  cleavage ratio (PAR) on peptide array, human MT-SP1 500 nM: showed higher cleavage ratios than the sequence shown as SEQ ID NO: 3 for both the cleavages by human uPA and human MT-SP1
SEQ ID NOs: 5-17201
  cleavage ratio (PAR) on peptide array, human MT-SP1 500 nM: showed higher cleavage ratios than the sequence shown as SEQ ID NO: 2 for both the cleavages by human uPA and human MT-SP1
